Source: publication PMC11904967

Target: pyruvate kinase PKM (PKM2), endogenous in PANC‐1 cells (human (endogenous in PANC-1)) (UniProt P14618)
Assay: western blotting of monomers and dimers; AsPC-1 and PANC-1 cells transduced with HACD2 WT, HACD2 MUT or vector, or with HACD2 knockdown; how dimers were kept on the gel is not told

Sequence of pyruvate kinase PKM (PKM2), endogenous in PANC‐1 cells, P14618 1-531 (natural protein; other documents disagree on this pair) (P14618 whole entry): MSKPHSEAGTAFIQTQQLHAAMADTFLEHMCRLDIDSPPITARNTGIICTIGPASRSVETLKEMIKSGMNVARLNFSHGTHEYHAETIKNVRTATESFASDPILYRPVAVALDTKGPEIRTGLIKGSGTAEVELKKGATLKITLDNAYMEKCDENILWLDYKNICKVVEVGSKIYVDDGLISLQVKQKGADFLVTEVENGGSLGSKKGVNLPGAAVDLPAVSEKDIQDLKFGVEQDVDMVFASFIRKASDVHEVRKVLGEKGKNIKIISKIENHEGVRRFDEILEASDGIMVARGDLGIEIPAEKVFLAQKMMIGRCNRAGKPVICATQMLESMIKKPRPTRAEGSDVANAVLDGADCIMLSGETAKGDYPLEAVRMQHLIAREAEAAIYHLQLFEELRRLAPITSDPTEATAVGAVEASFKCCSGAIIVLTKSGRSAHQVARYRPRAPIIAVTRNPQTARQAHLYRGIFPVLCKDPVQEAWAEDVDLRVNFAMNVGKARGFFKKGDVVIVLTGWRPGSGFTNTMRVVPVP

pyruvate kinase PKM (PKM2), endogenous in PANC‐1 cells, P14618 1-531 (natural protein; other documents disagree on this pair)
stoichiometry N: 2
